Blank lines part the entries; values can stand above or below the binder they belong to.
How the values were obtained:
[1] = target: T1, Recombinant Human Fc gamma RIIB/C (CD32b/c) Protein (R&D systems) (human, UniProt P31994 46-217); test: SPR (Biacore T200) as in Test Example 17; RU at 4.7 µM conjugate
T1 construct: Bought protein; also called human FcγRIIb/c
T1 sequence (looked up): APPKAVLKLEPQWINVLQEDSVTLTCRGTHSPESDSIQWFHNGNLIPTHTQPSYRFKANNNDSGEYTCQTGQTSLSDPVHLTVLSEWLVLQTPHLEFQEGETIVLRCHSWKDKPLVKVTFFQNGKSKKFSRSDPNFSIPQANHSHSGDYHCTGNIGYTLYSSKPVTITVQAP

[2] = target: T2, Recombinant Human Fc gammaRIIA/CD32a (R167) Protein (R&D systems) (human, UniProt P12318 36-218); test: SPR (Biacore T200) as in Test Example 16; RU at 4.7 µM conjugate
T2 construct: Bought protein; also called human FcγRIIa
T2 sequence (looked up): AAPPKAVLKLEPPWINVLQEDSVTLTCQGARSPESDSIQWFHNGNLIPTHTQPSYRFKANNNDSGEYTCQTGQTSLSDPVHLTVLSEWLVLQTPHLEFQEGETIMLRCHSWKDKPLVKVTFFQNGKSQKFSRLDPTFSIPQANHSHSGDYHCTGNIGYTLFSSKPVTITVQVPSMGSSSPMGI

[3] = target: T3, Recombinant Human Fc gamma RI/CD64 Protein (R&D systems) (human, UniProt P12314 16-288); test: SPR (Biacore T200) as in Test Example 15; RU at 4.7 µM conjugate
T3 construct: His-tagged; also called human FcγRI; His-tagged human FcγRI

[4] = target: T1, Recombinant Human Fc gamma RIIB/C …; test: SPR (Biacore T200); FcγRIIb/c immobilised directly on CM5, antibody as analyte 0.9-4.7 µM
[5] = target: T2, Recombinant Human Fc gammaRIIA/CD32a …; test: SPR (Biacore T200); FcγRIIa immobilised directly on CM5, antibody as analyte 0.9-4.7 µM
[6] = target: T3, Recombinant Human Fc gamma RI/CD64 …; test: SPR (Biacore T200); His-tagged FcγRI captured on anti-His chip, antibody as analyte 0.3-4.7 µM

T3 sequence (P12314 16-288 limits assumed): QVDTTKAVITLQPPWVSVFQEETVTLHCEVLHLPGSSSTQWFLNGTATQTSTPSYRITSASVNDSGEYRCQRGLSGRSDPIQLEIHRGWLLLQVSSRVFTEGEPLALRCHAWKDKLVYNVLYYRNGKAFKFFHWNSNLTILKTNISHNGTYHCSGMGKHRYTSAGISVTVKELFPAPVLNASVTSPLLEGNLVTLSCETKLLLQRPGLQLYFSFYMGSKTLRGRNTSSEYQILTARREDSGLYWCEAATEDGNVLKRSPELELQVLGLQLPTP

B1: anti-EGFR antibody 1-CDN conjugate 1 (antibody, human IgG1, kappa, L234A L235A)
heavy: QVQLQESGPGLVKPSETLSLTCTVSGGSVSSGDYYWTWIRQSPGKGLEWIGHIYYSGNTNYNPSLKSRLTISIDTSKTQFSLKLSSVTAADTAIYYCVRDRVTGAFDIWGQGTMVTVSSASTKGPSVFPLAPSSKSTSGGTAALGCLVKDYFPEPVTVSWNSGALTSGVHTFPAVLQSSGLYSLSSVVTVPSSSLGTQTYICNVNHKPSNTKVDKRVEPKSCDKTHTCPPCPAPEAAGGPSVFLFPPKPKDTLMISRTPEVTCVVVGVSHEDPEVKFNWYVDGVEVHNAKTKPREEQYNSTYRVVSVLTVLHQDWLNGKEYKCKVSNKALPAPIEKTISKAKGQPREPQVYTLPPSREEMTKNQVSLTCLVKGFYPSDIAVEWESNGQPENNYKTTPPVLDSDGSFFLYSKLTVDKSRWQQGNVFSCSVMHEALHNHYTQKSLSLSPGK
light: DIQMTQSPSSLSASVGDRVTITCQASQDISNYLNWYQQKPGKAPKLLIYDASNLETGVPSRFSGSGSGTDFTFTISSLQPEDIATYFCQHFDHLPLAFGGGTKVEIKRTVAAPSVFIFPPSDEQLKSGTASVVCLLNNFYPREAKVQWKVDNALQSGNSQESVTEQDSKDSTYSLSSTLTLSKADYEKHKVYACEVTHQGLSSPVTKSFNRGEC
modifications: CDN drug-linker 17a conjugated through the remodeled N297 glycan (SG type); average number of conjugated drugs 3.7
notes: also called modified anti-EGFR antibody 1-CDN conjugate 1; antibody-drug conjugate 1
binding result [1]: binds
binding result [2]: binds
binding result [3]: binds

B2: anti-EGFR antibody 1-CDN conjugate 2 (antibody, human IgG1, kappa, L234A L235A)
heavy: B1 heavy
light: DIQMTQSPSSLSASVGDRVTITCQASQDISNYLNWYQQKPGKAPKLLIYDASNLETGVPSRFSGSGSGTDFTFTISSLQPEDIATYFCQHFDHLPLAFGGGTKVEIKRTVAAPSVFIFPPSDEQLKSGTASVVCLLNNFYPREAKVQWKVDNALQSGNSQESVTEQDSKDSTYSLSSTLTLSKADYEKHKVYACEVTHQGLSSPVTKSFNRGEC
modifications: CDN drug-linker 17a conjugated through the remodeled N297 glycan (MSG1 type); average number of conjugated drugs 1.9
notes: also called modified anti-EGFR antibody 1-CDN conjugate 2; antibody-drug conjugate 2
binding result [1]: binds
binding result [2]: binds
binding result [3]: binds

B3: modified anti-EGFR antibody 1 (antibody, human IgG1, kappa, L234A L235A)
heavy: B1 heavy
light: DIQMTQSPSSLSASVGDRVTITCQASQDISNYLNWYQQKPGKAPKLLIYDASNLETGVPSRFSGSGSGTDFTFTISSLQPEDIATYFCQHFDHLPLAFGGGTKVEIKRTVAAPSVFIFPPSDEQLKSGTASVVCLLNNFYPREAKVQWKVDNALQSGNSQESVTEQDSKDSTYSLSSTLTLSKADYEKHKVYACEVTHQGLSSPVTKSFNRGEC
notes: IgG1 with L234A/L235A/D265G (LALA-DG) introduced into anti-EGFR antibody A; also called LALA-DG; LALA-DG mutant anti-EGFR antibody
binding result [4]: binds
binding result [5]: binds
binding result [6]: binds

Continued, values first:

binding result [4]: binds
binding result [5]: binds
binding result [6]: binds
B4: anti-EGFR antibody B (Vectibix) (antibody, human IgG2, kappa)
heavy: QVQLQESGPGLVKPSETLSLTCTVSGGSVSSGDYYWTWIRQSPGKGLEWIGHIYYSGNTNYNPSLKSRLTISIDTSKTQFSLKLSSVTAADTAIYYCVRDRVTGAFDIWGQGTMVTVSSASTKGPSVFPLAPCSRSTSESTAALGCLVKDYFPEPVTVSWNSGALTSGVHTFPAVLQSSGLYSLSSVVTVPSSNFGTQTYTCNVDHKPSNTKVDKTVERKCCVECPPCPAPPVAGPSVFLFPPKPKDTLMISRTPEVTCVVVDVSHEDPEVQFNWYVDGVEVHNAKTKPREEQFNSTFRVVSVLTVVHQDWLNGKEYKCKVSNKGLPAPIEKTISKTKGQPREPQVYTLPPSREEMTKNQVSLTCLVKGFYPSDIAVEWESNGQPENNYKTTPPMLDSDGSFFLYSKLTVDKSRWQQGNVFSCSVMHEALHNHYTQKSLSLSPGK
light: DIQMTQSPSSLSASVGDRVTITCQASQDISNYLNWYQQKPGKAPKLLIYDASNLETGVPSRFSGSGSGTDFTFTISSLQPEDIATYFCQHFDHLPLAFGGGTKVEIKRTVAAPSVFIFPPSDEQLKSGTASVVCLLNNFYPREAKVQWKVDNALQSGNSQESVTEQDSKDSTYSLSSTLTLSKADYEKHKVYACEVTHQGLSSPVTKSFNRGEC
notes: Commercial Vectibix (IgG2), buffer-exchanged into HBS-EP+; also called anti-EGFR antibody (IgG2); IgG2

binding result [1]: binds
binding result [2]: binds
binding result [3]: binds
B5: anti-EGFR antibody B-CDN conjugate 2 (antibody, human IgG2, kappa)
heavy: B4 heavy
light: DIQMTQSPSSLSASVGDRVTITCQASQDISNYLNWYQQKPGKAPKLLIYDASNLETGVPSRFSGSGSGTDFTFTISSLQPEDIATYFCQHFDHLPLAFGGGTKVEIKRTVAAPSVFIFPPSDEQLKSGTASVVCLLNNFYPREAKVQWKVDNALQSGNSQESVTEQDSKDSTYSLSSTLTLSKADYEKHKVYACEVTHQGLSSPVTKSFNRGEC
modifications: CDN drug-linker 17a conjugated through the remodeled N297 glycan (MSG1 type); average number of conjugated drugs 1.9
notes: Antibody-drug conjugate of Vectibix (IgG2), DAR about 2; Light chain is inferred as for m1; also called antibody-drug conjugate 8

From patent US20260256934A1 (Daiichi Sankyo, published 2026)
